Laboratory results from a protein production outcome set (Wang et al. 2014).

Assay: label from the status in PepcDB records

| Sequence | protein production |
| --- | --- |
| MSAIDSQLPSSSGQDRPTDEVDRILSPGKLIILGLQHVLVMYAGAVAVPLMIGDRLGLSKEAIAMLISSDLFCCGIVTLLQCIGIGRFMGIRLPVIMSVTFAAVTPMIAIGMNPDIGLLGIFGATIAAGFITTLLAPLIGRLMPLFPPLVTGVVITSIGLSIIQVGIDWAAGGKGNPQYGNPVYLGISFAVLIFILLITRYAKGFMSNVAVLLGIVFGFLLSWMMNEVNLSGLHDASWFAIVTPMSFGMPIFDPVSILTMTAVLIIVFIESMGMFLALGEIVGRKLSSHDIIRGLRVDGVGTMIGGTFNSFPHTSFSQNVGLVSVTRVHSRWVCISSGIILILFGMVPKMAVLVASIPQFVLGGAGLVMFGMVLATGIRILSRCNYTTNRYNLYIVAISLGVGMTPTLSHDFFSKLPAVLQPLLHSGIMLATLSAVVLNVFFNGYQHHADLVKESVSDKDLKVRTVRMWLLMRKLKKNEHGE | failed |
| MKAANSGRTAAALECFERVVKLQSTPVNWSYLAFCVARERQQFEHATRLCEEAVRREPRSSVLYLNLGKVYLLSGRKDDAIRTFRQGLLYERNTLIESELRRLGLRKPPVLNFLAREHPVNKYLGIMLKKLKIRLEHHHHHH | failed |
| MSERKINDEPKSMLLLQRGEEFGKVNNGSKNRAFSSFTKFKIPSQFKTNSSITSFSNRREDIREPNSNSLFSMYNNDVLLKYDTTEVALATTNMFTHTVWNNKSEEIISYGYGSHVSFSCFIGFHY | failed |
| SRSRPAGPALLLLLLFLGAAESVRRAQPPRRYTPDWPSLDSRPLPAWFDEAKFGVFIHWGVFSVPAWGSEWFWWHWQGEGRPQYQRFMRDNYPPGFSYADFGPQFTARFFHPEEWADLFQAAGAKYVVLTTKHHEGFTNWPSPVSWNWNSKDVGPHRDLVGELGTALRKRNIRYGLYHSLLEWFHPLYLLDKKNGFKTQHFVSAKTMPELYDLVNSYKPDLIWSDGEWECPDTYWNSTNFLSWLYNDSPVKDEVVVNDRWGQNCSCHHGGYYNCEDKFKPQSLPDHKWEMCTSIDKFSWGYRRDMALSDVTEESEIISELVQTVSLGGNYLLNIGPTKDGLIVPIFQERLLAVGKWLSINGEAIYASKPWRVQWEKNTTSVWYTSKGSAVYAIFLHWPENGVLNLESPITTSTTKITMLGIQGDLKWSTDPDKGLFISLPQLPPSAVPAEFAWTIKLTGVK | failed |
| MTPAELISRLEEAWLNEKFSPELLENKSELVECVMEQLTHMEENLQRVRKGDLKASVHRMEIDRIRFVLSSFLRSRLKKIEKFFPHVLEKEKSRADGDPSFLSPEEFAFAKEYLANTEVYLRAVALKHMPPNLQSVDMMKAVPEPCLDSFVFLRVKEKQENILVEPETDEQREYVVDLDEGSQHLMRYRTIAPLVASGAVQLI | failed |
| MTRVLYCGDTSLETAAGYLAGLMTSWQWEFDYIPSHVGLDVGELLAKQDLVILSDYPAERMTAQAIDQLVTMVKAGCGLVMLGGWESYHGLGGNWDQTLLAEVLPVDIKSADDRINFDQPTLAIPAAINSVSHPILQNLPWEDRPPTIGGLNRIAAKAKAQTLLMARVWRPTFSLEHGKTTWEHADHHPLLVVGEAGTGRVAAFASDVAPHWVGGLVDWGDERVTSQAPGAGAIEVGNLYSQFFRQMLEWVAKSTR | not failed |
| SWNKKNEEKEDFGIIVILWKQVTVKEDGKVPLEPFLTAAKEVLRVVDAFGSGFRIVKNDIAGNIKKLYRANQTVHAETLQELIIAENSPDGLATVALLWLKRAFQFIASFLRRLVVTDKSLEQCVTEAYNCTLRPCHSAVIQKVFWGGVKLAPSRERFYRKLHPDLNIAKAKIEEFLIELHDPLCCIVQFFFQRELEDQCWGDEVYQRKDSSEWLKVSCEQDSV | not failed |
| MHGPPESQEPCGTFGPDETTGATSTAASRGEARRLPRGGVLWALVDCNNFYASCERLFRPDLKGRPVVVLSNNDGCVIARSAEAKALGVPMGAPEFKVRDMLRAHDVAVFSSNYALYGDLSQRVMRTLATVVPRVEVYSIDEAFIPLPAALAADPVAVGRTLRQRVAQWVGIPVSVGVGPTRTLAKLANRLSKQDSAYGNVFDLTPETVDMDRVLASVDVGDVWGVGRRSAEMLRGRGILTARALRDADPLWVRQRMTVTGWRTQQELRGMPCLTDDDLPVPRRSIRSSRSFGQMVRTLEPLREAVATFTARAVAKARAEGLVASCIEVHIRTPRHTERPRYDETTTITLPCPTADTGLCIRHALTGLERIFREGYLYAKAGVTLFGLEPAAGRQGSLLDLLDGSHEHKARRERLMAALDAVNLRHGRGSIRHGAEGDPGAAWHMSQKYRSPRYTTAWEELPEVLCR | failed |
| KMLMPIEFELVESAPLFHELLHLRDAVGLPSIGVDMADGHPLQPLYWVSIHLTAKQDKNTATIVATACVYGDNANHFAIEDFIVLPEYRHIGLGKIILERVMAFVDDRATLGTYVSINTHGEQEKLCTDYGFAHSH | failed |
| MAKIHVLEKHVAELIAAGEVVERPSSVIKELVENSIDAGATTISVEIQRGGIAYMRVTDNGGGIAREDVPKAFLRNATSKVESAEDLDGIGTLGFRGEALASICAVSRVTLLTRTEEELAGTSYQIEGGEELALEDAGCAKGCTIVVRDLFYNTPARMKFLKKDVSEANAVAGVMDRAALSHPEISFRFVRDHKETLSTPGDRQLRSCIYAVYGKDFTAGLIPVDYAYNGIKVRGFISKPSAARPNRSMQHFFINGRFVKSKTAMVALEQAFKGSIMAGKFPSCVLHLSVPWEAVDVNVHPSKIEVRFLNEKPIFDAVYHGVKSALLSGDQRKEMILPRPKLDPPASQPEQIRLAAKPAIGSAAQETAEKEARLLTSQTEQAPNSSLGAYEKVVSSSAGRLAQPQQAPLGKAPDKAFPQTASGPAVAGTSHIGENAADKKPPSSLPGIGAAGRIPVPYEENEPEIYLPVKRQTAIPAVRDFISSPFSFSDEASKPKAAGEAPGDTGFEAAAADRGRKAEPKAQELSEEAAGEKPESSRQAAAAEPPREEAGLQPFGEKRQRLVGEAFRTYLIIEYGDDELLLIDKHAAHERILYEKLKKESGKSCAQYLLEPIPVTLDKNEYAAVLENQKLFWEAGFEVEDFGGGSVLVRSAPLSLEQEDIASSLMEIAGHLLENKTDMSTEKLDWLYHNIACRAAVKAGQITSDQELIALAVALRENPEIRYCPHGRPVSITLKKREIEKQFGRIQ | failed |
| MPSIKIRENEPFEIAIRRFKRACEKAGVLSEVRRREYYEKPTEERKRKAAAAIKRHLKKLSRERFALQNLRKGRPQQLEHHHHHH | not failed |
| MLTPLQIYFPIGVVLLVAVVLAFTMLGLANVLGPRRPSLVKQTPFECGSEPIGSARERFGVKFYVVALLFIVFDIEAIFLYPWAVLLLPDGQGYPGLGWPGFISMGIFVFTLVAGLVYVWKKGVLDWAD | failed |
| MELKMNDINQHSFLKLGSVRHIQSEQEALEIAKEMANQLNQFARNPSYNKTVPYDQARLISEAGLTAIIVPKQFGGLGASISTLVNVVKIISSADGGVGQLLQIHFTMFRGILTGYDDEIRDQLLADVLSGKRLGNALAEVGGKDKFQHKTRVERNSEGKLILNGSKFYSTGSLLAEWISLFAGSDDGPVSILIHRDTQGVELLNDWDAMGQNNSVSGTVNFKDVVVDERYVAKRNTGGLGTVLRTGLTWPQILHAAMDTGIAKGALQGGIDYLQHHARPWVESGVDSPTHESHIIKQIGEFAVLVRSAEALLDRSAQIFEQHLANVEDEDLQTELILSVAATRSQSDHASLKISSEIFGLLGASSTLSKWNLDRFWRNARTHTTHDPIRWRLYHVGNYYLNNIPPGEYNSVLLKKQAENVTKFSK | failed |
| SRKVFVGGLPPDIDEDEITASFRRFGPLVVDWPHKAESKSYFPPKGYAFLLFQEESSVQALIDACLEEDGKLYLCVSSPTIKDKPVQIRPWNLSDSDFVMD | not failed |
| MEGISIYTSDNYTEEMGSGDYDSMKEPCFREENANFNKIFLPTIYSIIFLTGIVGNGLVILVMGYQKKLRSMTDKYRLHLSVADLLFVITLPFWAVDAVANWYFGNFLCKAVHVIYTVNLYSSVLILAFISLDRYLAIVHATNSQRPRKLLAEKVVYVGVWIPALLLTIPDFIFANVSEADDRYICDRFYPNDLWVVVFQFQHIMVGLILPGIVILSCYCIIISKLSHSKGHQKRKALKTTVILILAFFACWLPYYIGISIDSFILLEIIKQGCEFENTVHKWISITEALAFFHCCLNPILYAFLGAKFKTSAQHALTSVSRGSSLKILSKGKRGGHSSVSTESESSSFHSS | not failed |
| MDDNTPDLFAEPAAPEGDFLTLGRYAERQYLDYAVSVVKGRALPDVSDGQKPVQRRILYAMNEMGLGDNAKPVKSARVVGDVLGKYHPHGDQSAYDALVRLAQDFSMRYPLIDGQGNFGSRDGDGAAAMRYTEARLTPIAKLLLDEIDEGTVDFMPNYDGSFDEPKLLPARLPFVLLNGASGIAVGLATEIPSHNLREVAAAAVALIRHPALPHAELMQLVPGPDFPGGGQIISSDAEISAAYETGRGSLKVRARWKIEDLARGQWQLVVTELPPNTSCQKVLEEIEELTNPKLKAGKKTLTQEQINTKKTMLDLLDAVRDESGKDAPVRLVFEPKTRTIDQTEFVNSLLAHTSLESNAALNLVMIGEDGRPAQKGLASILGEWVRFRQATVTRRCRHRLGKVNDRIHILEGRMIVFLNIDEVIRIIREADEPKAALISAFGLTERQADDILEIRLRQLARLEKIKIEKELEELRAEKAKLEELLANESAMKRLMIKEIEADAKQYGDERRTLIQQEKRATFEAKVVDEPVTVVVSQKGWVRALKGHGLDPASFSFKAGDGLYAAFQCRTPDTLIAWGSTGRVYSVAVQVLPGGRGDGVPVTSLIELESGSHLLHYFAAPAEQPLLLASSNGFGFIAKIGDMVSRVKAGKSFMTIDTGAAPLAPMPVLPDASQVACLSSGGRLLVFGMDEMKTLSGGGRGVILMALDAKETLVQALAIDAAGVVLTGTGRGGKAQEEALAGGALEPHVGKRARKGRAPDTRLKVSGLRPVLG | failed |
| LDNRFNYINVPGLGGSGEHHWQTFWEQAYPEIHRVQQADWDHPICSVWVNKLQLITETCSDKPVVLIAHSLGCVTVLHAVAQRKLKGIAGAFLVAMPDAERADFPKECIGFIPVPRIVLPFPAVMIASENDPYITSPELKKWADVIQASFVSVGQRGHIGTAAQLTYWEEGQQLFRSFVEQL | failed |
| MKTDVRWATFNIRYDNPQDSLNNWQYRKDRVCQFIKDHELDIVGMQEVLHNQFQDLRAGLPEYDGIGVGRDDGKTAGEYAPLFYRKDKYEVLDSNTFWLAENPDSVGMMGWDAVCVRIATWAKFKDKATGKIFMAVNTHFDHVGEEARRQSALLIIRKIKEIVGERPAVVTGDFNVTDASDAYETITTNEFVMKDAYKTAARVTGVDYTFHDFARIPAEDCEKIDFIFVTPQVLVKSCEIPAEVPEALLSDHNPQLADLELEHHHHHH | not failed |
| MIRSIVCTQRLIHRIMYTSARKYFIQFAIVAFVLGFIPTLYFIHAASQLETQAVSSVEKQTRLQLEFSQHDLLRMLESTHQATQLLAKNDLLFTAVTTPSKEALSQLKTLWDVTLRSQAIFSSFRLLDRQGKEQLKAIYDGHQVTFVESAQTTDPFSQQIVAQYAQLTTPQVWATQVAMSADTPSGMLPTFRFVTGIEHQGQRQGFLVVTVKLQSLYQRLSFIYDQFDSPDILNSAGELLLSEHKPSGTRSTSSLHFSAQHPELWQKIQLNQQGFALSNQTWFSYIKVDLSSVLPDFKPLVLVLRINKAEIDKTYANARWALMSQAVTVLSLLSIIAAGFAAWNINHLKNSLDSKLARAAMDGMSAVVITDRQNRIIKVNNEFTRLSGYTFEDVKGKQPSIFASGLHKVEFYMQMWKALQDNGVWEGEVINKRKDGESITEILRIQSIRDEDNVIQFYVASFVDISHRKALENRLRELSEKDALTDLWNRRKFDQTISLECAKRRRYPDQAQSCLAIIDIDHFKRINDKFGHNEGDLVLRTVAKGIQDQLRESDFIARIGGEEFAIIFPYTSIEEAEQVLNRVRLHIASLHHQQVTLSGGVTDVCTSPDQSYKRADLALYESKTSGRNQISVLTAMEMHHFA | failed |
